IC50 (ug/ml) neutralization data for five substances are collected here from patent US20110223615A1.

A value given as a limit tells only on which side of the number the result lay.

One assay concerns the target BaL.01 (envelope of the HIV-1 pseudovirus) (HIV-1). Put plainly: cell-based or functional assay.
CD4bs mAb b12 (antibody): the IC50 (ug/ml) neutralization is 0.2 µg/mL.

For the substance E51 (antibody), the IC50 (ug/ml) neutralization is over 30 µg/mL.

In turn, HIV-1 CD4i mAb 17b (antibody) yielded an IC50 (ug/ml) neutralization of over 30 µg/mL.

HIV-1 CD4i mAb 19e (antibody) gave an IC50 (ug/ml) neutralization of over 30 µg/mL.

On to “broadly neutralizing mAb 2G12 (antibody)”, for which the IC50 (ug/ml) neutralization amounted to 1 µg/mL.

The target in another assay is SVPB16 (envelope of the HIV-1 pseudovirus) (HIV-1). In words: cell-based or functional assay.
The substance CD4bs mAb b12 (antibody) returned an IC50 (ug/ml) neutralization of 12 µg/mL.

With E51 (antibody), the IC50 (ug/ml) neutralization was over 30 µg/mL.

As to HIV-1 CD4i mAb 17b (antibody), the IC50 (ug/ml) neutralization is over 30 µg/mL.

HIV-1 CD4i mAb 19e (antibody) yielded an IC50 (ug/ml) neutralization of over 30 µg/mL.

In turn, “broadly neutralizing mAb 2G12 (antibody)” came in with an IC50 (ug/ml) neutralization of over 25 µg/mL.

For another assay, the target named is SVPB17 (envelope of the HIV-1 pseudovirus) (HIV-1). Put plainly: cell-based or functional assay.
CD4bs mAb b12 (antibody) registered an IC50 (ug/ml) neutralization of over 30 µg/mL.

E51 (antibody) returned an IC50 (ug/ml) neutralization of over 30 µg/mL.

As for HIV-1 CD4i mAb 17b (antibody), the IC50 (ug/ml) neutralization was over 30 µg/mL.

Turning to HIV-1 CD4i mAb 19e (antibody), the IC50 (ug/ml) neutralization was over 30 µg/mL.

Substance “broadly neutralizing mAb 2G12 (antibody)” registered an IC50 (ug/ml) neutralization of over 25 µg/mL.

Another assay concerns the target SVPB14 (envelope of the HIV-1 pseudovirus) (HIV-1). In words: cell-based or functional assay.
Take CD4bs mAb b12 (antibody): the IC50 (ug/ml) neutralization came out at 0.3 µg/mL.

In turn, E51 (antibody) yielded an IC50 (ug/ml) neutralization of over 30 µg/mL.

Substance HIV-1 CD4i mAb 17b (antibody) showed an IC50 (ug/ml) neutralization of over 30 µg/mL.

On to HIV-1 CD4i mAb 19e (antibody), for which the IC50 (ug/ml) neutralization was over 30 µg/mL.

With “broadly neutralizing mAb 2G12 (antibody)”, the IC50 (ug/ml) neutralization is over 25 µg/mL.

For another assay, the target named is SVPB12 (envelope of the HIV-1 pseudovirus) (HIV-1). In words: cell-based or functional assay.
With CD4bs mAb b12 (antibody), the IC50 (ug/ml) neutralization is over 30 µg/mL.

With E51 (antibody), the IC50 (ug/ml) neutralization is over 30 µg/mL.

As for HIV-1 CD4i mAb 17b (antibody), the IC50 (ug/ml) neutralization is over 30 µg/mL.

With HIV-1 CD4i mAb 19e (antibody), the IC50 (ug/ml) neutralization was over 30 µg/mL.

In turn, “broadly neutralizing mAb 2G12 (antibody)” registered an IC50 (ug/ml) neutralization of 0.3 µg/mL.

For the next assay, the target named is JRFL (envelope of the HIV-1 pseudovirus) (HIV-1). In words: cell-based or functional assay.
Substance CD4bs mAb b12 (antibody) displayed an IC50 (ug/ml) neutralization of under 0.1 µg/mL.

E51 (antibody): the IC50 (ug/ml) neutralization was over 30 µg/mL.

Substance HIV-1 CD4i mAb 17b (antibody) registered an IC50 (ug/ml) neutralization of over 30 µg/mL.

The substance HIV-1 CD4i mAb 19e (antibody) showed an IC50 (ug/ml) neutralization of over 30 µg/mL.

“broadly neutralizing mAb 2G12 (antibody)” gave an IC50 (ug/ml) neutralization of 0.3 µg/mL.

A further assay deals with HIV2 (envelope of the indicator virus, without sCD4) (HIV-2). In words: cell-based or functional assay.
With CD4bs mAb b12 (antibody), the IC50 (ug/ml) neutralization is over 30 µg/mL.

Take E51 (antibody): the IC50 (ug/ml) neutralization is over 30 µg/mL.

The substance HIV-1 CD4i mAb 17b (antibody) yielded an IC50 (ug/ml) neutralization of 10 µg/mL.

For the substance HIV-1 CD4i mAb 19e (antibody), the IC50 (ug/ml) neutralization is over 30 µg/mL.

Turning to “broadly neutralizing mAb 2G12 (antibody)”, the IC50 (ug/ml) neutralization was over 25 µg/mL.

In a further assay the target is SVPB5 (envelope of the HIV-1 pseudovirus) (HIV-1). Put plainly: cell-based or functional assay.
Take CD4bs mAb b12 (antibody): the IC50 (ug/ml) neutralization turned out to be 18 µg/mL.

E51 (antibody) came in with an IC50 (ug/ml) neutralization of over 30 µg/mL.

In turn, HIV-1 CD4i mAb 17b (antibody) came in with an IC50 (ug/ml) neutralization of over 30 µg/mL.

For the substance HIV-1 CD4i mAb 19e (antibody), the IC50 (ug/ml) neutralization is over 30 µg/mL.

“broadly neutralizing mAb 2G12 (antibody)” came in with an IC50 (ug/ml) neutralization of 8 µg/mL.

The target in the next assay is SF162 (envelope of the HIV-1 pseudovirus) (HIV-1). In words: cell-based or functional assay.
CD4bs mAb b12 (antibody): the IC50 (ug/ml) neutralization is under 0.1 µg/mL.

For the substance E51 (antibody), the IC50 (ug/ml) neutralization came to 45 µg/mL.

Turning to HIV-1 CD4i mAb 17b (antibody), the IC50 (ug/ml) neutralization is 30 µg/mL.

The substance HIV-1 CD4i mAb 19e (antibody) displayed an IC50 (ug/ml) neutralization of over 30 µg/mL.

“broadly neutralizing mAb 2G12 (antibody)” had an IC50 (ug/ml) neutralization of 0.5 µg/mL.

A further assay concerns the target MuLV (envelope of the control pseudovirus) (MuLV). Put plainly: cell-based or functional assay.
Substance CD4bs mAb b12 (antibody) registered an IC50 (ug/ml) neutralization of over 30 µg/mL.

In turn, E51 (antibody) displayed an IC50 (ug/ml) neutralization of over 30 µg/mL.

HIV-1 CD4i mAb 17b (antibody) returned an IC50 (ug/ml) neutralization of over 30 µg/mL.

The substance HIV-1 CD4i mAb 19e (antibody) had an IC50 (ug/ml) neutralization of over 30 µg/mL.

For “broadly neutralizing mAb 2G12 (antibody)”, the IC50 (ug/ml) neutralization was over 25 µg/mL.

Another assay concerns the target ADA (envelope of the HIV-1 pseudovirus) (HIV-1). In words: cell-based or functional assay.
With CD4bs mAb b12 (antibody), the IC50 (ug/ml) neutralization was found to be 1.2 µg/mL.

With E51 (antibody), the IC50 (ug/ml) neutralization was over 30 µg/mL.

Substance HIV-1 CD4i mAb 17b (antibody) came in with an IC50 (ug/ml) neutralization of over 30 µg/mL.

In the case of HIV-1 CD4i mAb 19e (antibody), the IC50 (ug/ml) neutralization is over 30 µg/mL.

“broadly neutralizing mAb 2G12 (antibody)” registered an IC50 (ug/ml) neutralization of 12 µg/mL.
